# From publication doi:10.1101/2023.03.09.531510
# Tests used:
# Assay in all cases: protein-fragment complementation
# [1] = biological target: Ssb2 (UniProt P40150)
# [2] = biological target: Sbp1 (UniProt P10080)
# [3] = biological target: Osh2 (UniProt Q12451)
# [4] = biological target: Smi1 (UniProt P32566)
# [5] = biological target: Bmh1 (UniProt P29311)
# [6] = biological target: Lsb3 (UniProt P43603)
# [7] = biological target: Hek2 (UniProt P38199)
# [8] = biological target: Tdh3 (UniProt P00359)
# [9] = biological target: Pab1 (UniProt P04147)
# [10] = biological target: Bbc1 (UniProt P47068)
# [11] = biological target: Yor1 (UniProt P53049)
# [12] = biological target: Sla2 (UniProt P33338)
# [13] = biological target: Chc1 (UniProt P22137)
# [14] = biological target: Ysc84 (UniProt P32793)
# [15] = biological target: Abp1 (UniProt P15891)
# [16] = biological target: Mid2 (UniProt P36027)
# [17] = biological target: Ssa1 (UniProt P10591)
# [18] = biological target: Cmd1 (UniProt P06787)
# [19] = biological target: Srv2 (UniProt P17555)
# [20] = biological target: Arc19 (UniProt P33204)
# [21] = biological target: Aim21 (UniProt P40563)
# [22] = biological target: Arc40 (UniProt P38328)
# [23] = biological target: Sla1 (UniProt P32790)
# [24] = biological target: Pan1 (UniProt P32521)
# [25] = biological target: Tif4631 (UniProt P39935)
# [26] = biological target: Arc15 (UniProt P40518)
# [27] = biological target: Sfk1 (UniProt P35735)
# [28] = biological target: Sac6 (UniProt P32599)
# [29] = biological target: Vrp1 (UniProt P37370)
# [30] = biological target: Pkh2
# [31] = biological target: Cdc3 (UniProt P32457)
# [32] = biological target: Ste20 (UniProt Q03497)
# [33] = biological target: Ygl242c (UniProt P53066)
# [34] = biological target: Ssb1 (UniProt P11484)
# [35] = biological target: Arc18 (UniProt Q05933)
# [36] = biological target: Syp1 (UniProt P25623)
# [37] = biological target: Hsp104 (UniProt P31539)
# [38] = biological target: Bzz1 (UniProt P38822)
# [39] = biological target: Myo5 (UniProt Q04439)
# [40] = biological target: Las17 (UniProt Q12446)
# [41] = biological target: Cdc10 (UniProt P25342)
# [42] = biological target: Rvs167 (UniProt P39743)
# [43] = biological target: Nap1 (UniProt P25293)
# [44] = biological target: Ssz1 (UniProt P38788)
# [45] = biological target: Pfk1 (UniProt P16861)
# Chain of UniProt P32793 (P32793 whole entry): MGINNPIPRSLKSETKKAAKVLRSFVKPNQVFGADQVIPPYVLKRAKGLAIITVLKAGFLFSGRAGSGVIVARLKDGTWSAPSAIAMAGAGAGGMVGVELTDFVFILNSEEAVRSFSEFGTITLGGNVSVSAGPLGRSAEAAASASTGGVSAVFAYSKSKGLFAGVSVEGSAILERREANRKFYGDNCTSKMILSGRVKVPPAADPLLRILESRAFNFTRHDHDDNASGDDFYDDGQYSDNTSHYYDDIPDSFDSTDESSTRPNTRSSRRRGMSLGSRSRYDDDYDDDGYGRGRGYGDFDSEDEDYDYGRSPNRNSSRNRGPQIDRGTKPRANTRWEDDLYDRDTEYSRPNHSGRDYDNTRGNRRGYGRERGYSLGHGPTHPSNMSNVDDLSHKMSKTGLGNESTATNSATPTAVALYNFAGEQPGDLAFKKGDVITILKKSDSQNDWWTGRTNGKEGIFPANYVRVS
# Chain of UniProt P00359 (P00359 whole entry): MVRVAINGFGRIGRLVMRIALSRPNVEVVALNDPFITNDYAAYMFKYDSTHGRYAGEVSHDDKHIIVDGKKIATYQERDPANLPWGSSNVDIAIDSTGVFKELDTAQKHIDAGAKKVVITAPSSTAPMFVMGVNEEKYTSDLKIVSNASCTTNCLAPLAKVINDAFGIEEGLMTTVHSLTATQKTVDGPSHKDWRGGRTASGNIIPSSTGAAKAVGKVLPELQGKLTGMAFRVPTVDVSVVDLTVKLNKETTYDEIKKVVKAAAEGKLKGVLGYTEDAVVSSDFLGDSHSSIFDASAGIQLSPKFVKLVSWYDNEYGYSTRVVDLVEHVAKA
# Chain of UniProt P25342 (P25342 whole entry): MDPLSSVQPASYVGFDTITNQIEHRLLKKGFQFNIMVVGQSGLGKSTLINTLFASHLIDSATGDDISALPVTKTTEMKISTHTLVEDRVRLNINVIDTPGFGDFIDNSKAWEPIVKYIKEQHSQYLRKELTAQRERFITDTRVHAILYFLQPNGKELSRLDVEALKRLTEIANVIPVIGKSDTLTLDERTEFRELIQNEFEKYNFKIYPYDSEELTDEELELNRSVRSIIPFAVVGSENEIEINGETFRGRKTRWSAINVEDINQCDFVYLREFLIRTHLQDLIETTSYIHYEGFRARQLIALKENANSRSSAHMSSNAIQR
# Chain of UniProt P40150 (P40150 whole entry): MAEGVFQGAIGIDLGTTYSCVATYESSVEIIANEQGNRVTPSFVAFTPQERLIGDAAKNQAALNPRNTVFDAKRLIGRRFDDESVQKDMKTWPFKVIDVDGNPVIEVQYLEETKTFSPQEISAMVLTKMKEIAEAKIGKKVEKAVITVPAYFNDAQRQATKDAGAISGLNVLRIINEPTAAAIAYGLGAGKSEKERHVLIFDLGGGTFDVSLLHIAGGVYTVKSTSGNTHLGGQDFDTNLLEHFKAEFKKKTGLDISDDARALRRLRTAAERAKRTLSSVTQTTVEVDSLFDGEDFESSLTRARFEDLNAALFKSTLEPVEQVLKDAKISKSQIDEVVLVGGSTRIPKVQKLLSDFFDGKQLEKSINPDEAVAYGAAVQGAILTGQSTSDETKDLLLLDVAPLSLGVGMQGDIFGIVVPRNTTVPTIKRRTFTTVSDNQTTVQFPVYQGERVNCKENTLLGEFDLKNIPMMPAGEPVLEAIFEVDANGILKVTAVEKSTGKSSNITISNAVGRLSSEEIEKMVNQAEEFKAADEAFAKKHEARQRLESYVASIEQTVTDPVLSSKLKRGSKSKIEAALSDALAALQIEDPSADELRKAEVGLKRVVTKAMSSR
# Chain of UniProt P35735 (P35735 whole entry): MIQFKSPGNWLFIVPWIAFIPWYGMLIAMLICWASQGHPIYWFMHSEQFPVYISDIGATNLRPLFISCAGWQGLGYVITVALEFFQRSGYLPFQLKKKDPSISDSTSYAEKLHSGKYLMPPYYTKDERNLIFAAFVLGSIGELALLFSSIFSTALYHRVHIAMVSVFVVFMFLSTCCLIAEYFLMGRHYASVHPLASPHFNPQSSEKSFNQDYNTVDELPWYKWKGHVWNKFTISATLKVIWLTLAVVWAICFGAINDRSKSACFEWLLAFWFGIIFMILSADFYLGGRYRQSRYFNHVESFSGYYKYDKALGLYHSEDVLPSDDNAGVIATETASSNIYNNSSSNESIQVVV
# Chain of UniProt Q12446 (Q12446 whole entry): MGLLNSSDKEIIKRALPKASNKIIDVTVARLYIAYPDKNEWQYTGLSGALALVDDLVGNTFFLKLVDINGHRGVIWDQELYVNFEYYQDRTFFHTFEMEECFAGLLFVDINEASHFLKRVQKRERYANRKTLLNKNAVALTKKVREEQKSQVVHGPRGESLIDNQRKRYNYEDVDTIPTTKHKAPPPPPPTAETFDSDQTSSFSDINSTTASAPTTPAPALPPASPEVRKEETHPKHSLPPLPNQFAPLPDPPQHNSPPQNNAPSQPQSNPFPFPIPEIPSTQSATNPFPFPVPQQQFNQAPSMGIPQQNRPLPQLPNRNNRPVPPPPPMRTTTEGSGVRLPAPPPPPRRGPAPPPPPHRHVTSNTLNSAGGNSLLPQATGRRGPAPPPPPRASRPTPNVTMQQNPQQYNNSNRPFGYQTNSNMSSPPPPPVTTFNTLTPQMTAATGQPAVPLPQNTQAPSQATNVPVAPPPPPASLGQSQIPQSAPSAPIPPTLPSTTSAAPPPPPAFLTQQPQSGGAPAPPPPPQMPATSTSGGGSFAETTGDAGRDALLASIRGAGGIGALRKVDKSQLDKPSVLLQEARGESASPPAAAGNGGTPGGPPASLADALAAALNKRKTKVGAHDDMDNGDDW
# Chain of UniProt Q05933 (Q05933 whole entry): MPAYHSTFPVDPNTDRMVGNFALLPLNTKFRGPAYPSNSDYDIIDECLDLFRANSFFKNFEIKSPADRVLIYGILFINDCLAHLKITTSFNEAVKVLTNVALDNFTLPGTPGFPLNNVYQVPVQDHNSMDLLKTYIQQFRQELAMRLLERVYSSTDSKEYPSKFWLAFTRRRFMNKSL
# Chain of UniProt P31539 (P31539 whole entry): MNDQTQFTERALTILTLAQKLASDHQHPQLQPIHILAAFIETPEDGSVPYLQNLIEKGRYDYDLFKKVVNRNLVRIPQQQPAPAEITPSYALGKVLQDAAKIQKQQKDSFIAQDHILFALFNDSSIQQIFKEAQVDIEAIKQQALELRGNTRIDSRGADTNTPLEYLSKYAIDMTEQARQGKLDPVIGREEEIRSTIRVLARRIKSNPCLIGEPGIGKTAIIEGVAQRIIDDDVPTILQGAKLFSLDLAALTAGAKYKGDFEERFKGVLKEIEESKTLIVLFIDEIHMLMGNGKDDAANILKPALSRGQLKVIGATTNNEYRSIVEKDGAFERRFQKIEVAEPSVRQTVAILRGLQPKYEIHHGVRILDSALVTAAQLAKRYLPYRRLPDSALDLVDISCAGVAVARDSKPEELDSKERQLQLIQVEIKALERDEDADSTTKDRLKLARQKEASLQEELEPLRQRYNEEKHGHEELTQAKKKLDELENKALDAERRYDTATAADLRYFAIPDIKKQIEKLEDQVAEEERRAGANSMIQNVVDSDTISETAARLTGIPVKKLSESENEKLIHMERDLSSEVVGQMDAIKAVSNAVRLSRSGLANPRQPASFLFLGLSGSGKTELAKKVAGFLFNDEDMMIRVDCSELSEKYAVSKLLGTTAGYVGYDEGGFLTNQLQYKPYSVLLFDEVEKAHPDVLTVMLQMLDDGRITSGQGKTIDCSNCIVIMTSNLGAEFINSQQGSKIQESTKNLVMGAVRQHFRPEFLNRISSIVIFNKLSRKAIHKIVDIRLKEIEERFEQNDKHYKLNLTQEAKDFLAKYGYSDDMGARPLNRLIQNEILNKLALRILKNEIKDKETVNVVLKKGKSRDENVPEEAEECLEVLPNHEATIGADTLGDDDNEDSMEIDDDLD
# Chain of UniProt P38199 (P38199 whole entry): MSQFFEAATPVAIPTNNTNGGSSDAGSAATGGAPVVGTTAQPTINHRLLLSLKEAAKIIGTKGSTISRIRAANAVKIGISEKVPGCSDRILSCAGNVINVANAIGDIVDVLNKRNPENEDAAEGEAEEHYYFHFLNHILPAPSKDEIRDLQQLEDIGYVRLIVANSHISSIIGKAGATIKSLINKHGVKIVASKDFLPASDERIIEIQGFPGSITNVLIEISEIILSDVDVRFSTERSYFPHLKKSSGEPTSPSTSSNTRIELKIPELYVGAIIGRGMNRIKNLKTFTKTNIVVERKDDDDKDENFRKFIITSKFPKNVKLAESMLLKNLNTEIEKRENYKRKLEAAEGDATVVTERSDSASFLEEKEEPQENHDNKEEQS
# Chain of UniProt P53066 (P53066 whole entry): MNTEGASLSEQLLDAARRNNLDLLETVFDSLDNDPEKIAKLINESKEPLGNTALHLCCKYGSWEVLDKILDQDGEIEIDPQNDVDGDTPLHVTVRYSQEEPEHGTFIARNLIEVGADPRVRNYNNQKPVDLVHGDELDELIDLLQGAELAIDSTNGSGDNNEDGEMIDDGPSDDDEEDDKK
# Chain of UniProt P39743 (P39743 whole entry): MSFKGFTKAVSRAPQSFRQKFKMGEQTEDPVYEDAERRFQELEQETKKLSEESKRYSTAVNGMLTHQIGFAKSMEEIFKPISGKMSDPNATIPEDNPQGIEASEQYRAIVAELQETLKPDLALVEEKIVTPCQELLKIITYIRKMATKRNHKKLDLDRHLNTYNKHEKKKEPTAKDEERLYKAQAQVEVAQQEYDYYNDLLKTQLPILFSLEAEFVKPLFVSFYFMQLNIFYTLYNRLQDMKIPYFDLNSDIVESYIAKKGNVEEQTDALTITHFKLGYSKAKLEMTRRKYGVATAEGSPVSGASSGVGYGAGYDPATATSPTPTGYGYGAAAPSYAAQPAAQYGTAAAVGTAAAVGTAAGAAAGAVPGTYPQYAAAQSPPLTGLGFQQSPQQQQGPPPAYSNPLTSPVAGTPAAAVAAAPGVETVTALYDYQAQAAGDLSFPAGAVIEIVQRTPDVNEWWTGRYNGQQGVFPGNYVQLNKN
# Chain of UniProt P11484 (P11484 whole entry): as the sequence (P40150 whole entry) above, with Q49E, I413M, V435C, S436A counted along it
substance,measurement,setting,value
Myo5 with SH3 AncA (from UniProt Q04439),interaction score,[1],0.915
same,interaction score,[2],0.792
same,interaction score,[3],0.738
same,interaction score,[4],0.53
same,interaction score,[5],0.791
same,interaction score,[6],0.616
same,interaction score,[7],0.391
same,interaction score,[8],0.947
same,interaction score,[9],0.783
same,interaction score,[10],0.722
same,interaction score,[11],0.473
same,interaction score,[12],0.633
same,interaction score,[13],0.583
same,interaction score,[14],0.458
same,interaction score,[15],0.89
same,interaction score,[16],0.848
same,interaction score,[17],0.885
same,interaction score,[18],0.216
same,interaction score,[19],0.62
same,interaction score,[20],0.754
same,interaction score,[21],0.744
same,interaction score,[22],0.937
same,interaction score,[23],0.527
same,interaction score,[24],0.908
same,interaction score,[25],0.664
same,interaction score,[26],0.865
same,interaction score,[27],0.711
same,interaction score,[28],0.801
same,interaction score,[29],0.892
same,interaction score,[30],0.128
same,interaction score,[31],0.481
same,interaction score,[32],0.447
same,interaction score,[33],0.917
same,interaction score,[34],0.918
same,interaction score,[35],0.844
same,interaction score,[36],0.526
same,interaction score,[37],0.755
same,interaction score,[38],0.801
same,interaction score,[39],0.889
same,interaction score,[40],0.862
same,interaction score,[41],0.39
same,interaction score,[42],0.525
same,interaction score,[43],0.489
same,interaction score,[44],0.807
Myo5 with SH3 controlMyo5 (from UniProt Q04439),interaction score,[1],0.93
same,interaction score,[2],0.827
same,interaction score,[3],0.745
same,interaction score,[4],0.532
same,interaction score,[5],0.82
same,interaction score,[6],0.624
same,interaction score,[7],0.36
same,interaction score,[8],0.965
same,interaction score,[9],0.785
same,interaction score,[10],0.758
same,interaction score,[11],0.432
same,interaction score,[12],0.644
same,interaction score,[13],0.578
same,interaction score,[14],0.463
same,interaction score,[16],0.857
same,interaction score,[17],0.902
same,interaction score,[18],0.582
same,interaction score,[19],0.628
same,interaction score,[20],0.766
same,interaction score,[21],0.756
same,interaction score,[22],0.952
same,interaction score,[23],0.539
same,interaction score,[24],0.926
same,interaction score,[25],0.662
same,interaction score,[26],0.901
same,interaction score,[27],0.716
same,interaction score,[28],0.825
same,interaction score,[29],0.912
same,interaction score,[30],0.102
same,interaction score,[31],0.433
same,interaction score,[45],0.855
same,interaction score,[32],0.421
same,interaction score,[33],0.929
same,interaction score,[34],0.929
same,interaction score,[35],0.87
same,interaction score,[36],0.527
same,interaction score,[37],0.76
same,interaction score,[38],0.823
same,interaction score,[39],0.898
same,interaction score,[40],0.877
same,interaction score,[41],0.374
same,interaction score,[42],0.5
same,interaction score,[43],0.463
same,interaction score,[44],0.83
Myo5 with SH3 extantMyo5 (from UniProt Q04439),interaction score,[1],0.932
same,interaction score,[2],0.824
same,interaction score,[3],0.756
same,interaction score,[4],0.518
same,interaction score,[5],0.815
same,interaction score,[6],0.62
same,interaction score,[7],0.321
same,interaction score,[8],0.97
same,interaction score,[9],0.8
same,interaction score,[10],0.762
same,interaction score,[11],0.454
same,interaction score,[12],0.621
same,interaction score,[13],0.568
same,interaction score,[14],0.463
same,interaction score,[16],0.864
same,interaction score,[17],0.914
same,interaction score,[18],0.26
same,interaction score,[19],0.632
same,interaction score,[20],0.768
same,interaction score,[21],0.762
same,interaction score,[22],0.969
same,interaction score,[23],0.523
same,interaction score,[24],0.926
same,interaction score,[25],0.665
same,interaction score,[26],0.9
same,interaction score,[27],0.736
same,interaction score,[28],0.823
same,interaction score,[29],0.917
same,interaction score,[30],0.11
same,interaction score,[31],0.422
same,interaction score,[45],0.869
same,interaction score,[32],0.401
same,interaction score,[33],0.938
same,interaction score,[34],0.942
same,interaction score,[35],0.868
same,interaction score,[36],0.513
same,interaction score,[37],0.758
same,interaction score,[38],0.814
same,interaction score,[39],0.901
same,interaction score,[40],0.876
same,interaction score,[41],0.366
same,interaction score,[42],0.503
same,interaction score,[43],0.48
same,interaction score,[44],0.835
Myo5 with SH3 swapMyo3 (from UniProt Q04439),interaction score,[1],0.932
same,interaction score,[2],0.824
same,interaction score,[3],0.76
same,interaction score,[4],0.539
same,interaction score,[5],0.825
same,interaction score,[6],0.628
same,interaction score,[7],0.387
same,interaction score,[8],0.972
same,interaction score,[9],0.795
same,interaction score,[10],0.755
same,interaction score,[11],0.492
same,interaction score,[12],0.632
same,interaction score,[13],0.594
same,interaction score,[14],0.459
same,interaction score,[15],0.908
same,interaction score,[16],0.858
same,interaction score,[18],0.196
same,interaction score,[19],0.637
same,interaction score,[20],0.762
same,interaction score,[21],0.753
same,interaction score,[22],0.967
same,interaction score,[23],0.535
same,interaction score,[24],0.925
same,interaction score,[25],0.665
same,interaction score,[26],0.9
same,interaction score,[27],0.714
same,interaction score,[28],0.824
same,interaction score,[29],0.917
same,interaction score,[30],0.168
same,interaction score,[31],0.472
same,interaction score,[45],0.862
same,interaction score,[32],0.417
same,interaction score,[33],0.935
same,interaction score,[34],0.934
same,interaction score,[35],0.874
same,interaction score,[36],0.557
same,interaction score,[37],0.767
same,interaction score,[38],0.818
same,interaction score,[39],0.903
same,interaction score,[40],0.877
same,interaction score,[41],0.33
same,interaction score,[42],0.519
same,interaction score,[43],0.479
same,interaction score,[44],0.838
